US20260265354A1 (JIANGSU MABWELL HEALTH PHARMACEUTICAL R AND D, published 2026)

Assays:
Experiment in all cases: ELISA, coated antigen, 0 ng/ml antibody (blank control)
[1] = target: T1, Nectin-like-3 (UniProt Q8N3J6 25-367, limits assumed)
T1 construct: Bought recombinant protein; also called CADM2; IgSF4D
T1 sequence (looked up): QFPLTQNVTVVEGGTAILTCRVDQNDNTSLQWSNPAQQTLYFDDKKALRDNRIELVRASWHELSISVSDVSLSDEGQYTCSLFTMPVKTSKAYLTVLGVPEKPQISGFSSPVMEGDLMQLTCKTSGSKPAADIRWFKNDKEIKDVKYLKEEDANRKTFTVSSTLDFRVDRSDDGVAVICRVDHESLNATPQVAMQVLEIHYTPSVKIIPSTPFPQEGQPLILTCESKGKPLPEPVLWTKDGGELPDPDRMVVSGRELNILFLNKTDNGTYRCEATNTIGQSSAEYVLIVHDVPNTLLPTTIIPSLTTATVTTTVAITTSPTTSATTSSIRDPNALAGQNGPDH
Method: (§1) Coating: Nectin-1, Nectin-2, Nectin-3, Nectin-4, Nectin-like-1, Nectin-like-2, Nectin-like-3, Nectin-like-4, and Nectin-like-5 were diluted to 5 μg/ml in coating buffer (carbonate buffer, pH 9.6) respectively. A 96-well plate was coat with 100 μl per well and incubated overnight at 2-8° C.;
(§2) Sample loading: The plate was taken out, patted dry, and washed twice with 200 μl/well of PBST, then patted dry. The Nectin-4 antibodies prepared in Example 1 (antibody MM11, antibody R012, and antibody R036) were diluted with 1% BSA/PBST to concentrations of 10 μg/ml, 1 μg/ml, 100 ng/ml, and 10 ng/ml, respectively. 1% BSA/PBST solution for dilution was set as a blank control. 100 μl per well was added to the 96-well plate, and incubated at room temperature for 2 hours;
(§3) Reaction termination and plate reading: 100 μl/well of 1 mol/L H3PO4 was added to terminate the reaction and the plated was read. The absorbances of wells in the plate at 450 nm with 650 nm as reference wavelength were read and recorded as OD_{450 nm-650 nm}.

[2] = target: T2, Nectin-like-5 (UniProt P15151 21-343)
T2 construct: Bought recombinant protein; also called CD155; PVR
T2 sequence (looked up): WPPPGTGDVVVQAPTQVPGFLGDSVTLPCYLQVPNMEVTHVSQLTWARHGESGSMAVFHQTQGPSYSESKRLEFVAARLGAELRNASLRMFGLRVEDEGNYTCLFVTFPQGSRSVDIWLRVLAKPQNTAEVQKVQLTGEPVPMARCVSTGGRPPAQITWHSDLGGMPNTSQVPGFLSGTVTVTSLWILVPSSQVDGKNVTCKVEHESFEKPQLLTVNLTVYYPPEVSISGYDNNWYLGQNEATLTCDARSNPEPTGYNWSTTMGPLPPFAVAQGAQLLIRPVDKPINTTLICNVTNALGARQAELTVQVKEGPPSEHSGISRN
Method: as §1, §2, §3

[3] = target: T3, Nectin-3 (UniProt Q9NQS3 58-404, limits assumed)
T3 construct: Bought recombinant protein; also called CD113; PVRL-3
Method: as §1, §2, §3

[4] = target: T4, Nectin-like-1 (UniProt Q8N126 25-330, limits assumed)
T4 construct: Bought recombinant protein; also called CADM3; IgSF4B
T4 sequence (looked up): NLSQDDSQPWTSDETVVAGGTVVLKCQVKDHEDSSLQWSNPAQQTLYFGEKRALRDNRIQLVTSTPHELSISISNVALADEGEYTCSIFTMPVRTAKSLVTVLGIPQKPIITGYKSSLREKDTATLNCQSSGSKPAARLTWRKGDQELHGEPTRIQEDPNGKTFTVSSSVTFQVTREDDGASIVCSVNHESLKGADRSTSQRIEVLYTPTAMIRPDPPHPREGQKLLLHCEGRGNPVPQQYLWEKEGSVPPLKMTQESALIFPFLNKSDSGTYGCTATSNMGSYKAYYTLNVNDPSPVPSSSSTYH
Method: as §1, §2, §3

T3 sequence (Q9NQS3 58-404 limits assumed): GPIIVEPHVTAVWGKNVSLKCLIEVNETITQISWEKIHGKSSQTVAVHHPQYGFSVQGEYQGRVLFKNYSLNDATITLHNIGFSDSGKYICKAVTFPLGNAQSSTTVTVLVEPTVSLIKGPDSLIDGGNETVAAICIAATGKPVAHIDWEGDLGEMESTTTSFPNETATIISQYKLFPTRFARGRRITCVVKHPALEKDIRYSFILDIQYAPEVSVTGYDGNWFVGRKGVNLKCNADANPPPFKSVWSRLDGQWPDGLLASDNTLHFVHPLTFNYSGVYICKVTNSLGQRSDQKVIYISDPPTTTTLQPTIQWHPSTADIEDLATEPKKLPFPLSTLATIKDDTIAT

B1: Antibody MM11 (antibody, mouse IgG1, kappa, V domains shown)
VH: DVQLQESGPGLVKPSQSLSLTCSVTGYSITSNFYWNWIRQFPGNRLEWMGYISYDGSNNYNPSLKNRISISRDTSKNQFFLKLNSVTTEDTATYYCVRADYWGQGTLVTVSA
VL: DTVMTQTPLSLPVSLGDQASISCRSSQSLESSDGHAYLNWYLQKPGQSPQLLIYRVSNRFSGVLHRFSGSGSGTDFTLKISRVEAEDLGVYFCLQFTHVPFTFGSGTKLEIKR
notes: Mouse monoclonal antibody from hybridoma; also called Nectin-4 mouse monoclonal antibody MM11; mouse antibody MM11
- OD detection value [1]: 0.027 OD450 nm-650 nm
- OD detection value [2]: 0.011 OD450 nm-650 nm
- OD detection value [3]: 0.006 OD450 nm-650 nm
- OD detection value [4]: 0.007 OD450 nm-650 nm

B2: Antibody R012 (antibody, V domains shown)
VH: SKSVEESGGRLVTPGTPLTLTCTVSGFSLSTYAMSWVRQAPGKGLEYIGIISGRGTTYYASWLKGRFTISKTSTTVDLKITSPTTEDTATYFCARDAGISDVYTGYFNLWGQGTLVTVSS
VL: QPVLAQLPSASAALGASAKLTCTLSSAHRTYTIAWYQQQQGEAPRYLMMLKSDGSYTKGTGVPDRFSGSSSGADRYLIISSVQAADEADYYCGADDSGGYVFGGGTQLTVTG
notes: Rabbit monoclonal antibody from phage display; also called Nectin-4 rabbit monoclonal antibody R012; rabbit antibody R012
- OD detection value [1]: 0.008 OD450 nm-650 nm
- OD detection value [2]: 0.008 OD450 nm-650 nm
- OD detection value [3]: 0.008 OD450 nm-650 nm
- OD detection value [4]: 0.008 OD450 nm-650 nm

B3: Antibody R036 (antibody, V domains shown)
VH: SQSVEESGGRLVTPGTPLTLTCTVSGFSLSSYAMSWVRQAPGKGLEYIGIIGGRGTTYYAIWAKGRFTISKTSTTVDLKITSPTTEDTATYFCARDAGTTYVGTTYVATGYFNLWGQGTLVTVSS
VL: QPVLTQPPSASAALGASAKLTCTLSSAHKTYTIAWYQQQQGEAPRYLMILKSDGSYTRGTGVPDRFSGSSSGADRYLIISSVQADDEADYYCGADDSGGYVFGGGTQLTVTG
notes: Rabbit monoclonal antibody from phage display; also called Nectin-4 rabbit monoclonal antibody R036; rabbit antibody R036
- OD detection value [1]: 0.007 OD450 nm-650 nm
- OD detection value [2]: 0.008 OD450 nm-650 nm
- OD detection value [3]: 0.007 OD450 nm-650 nm
- OD detection value [4]: 0.007 OD450 nm-650 nm
